Assay [1] concerns the target T1, FOLR1 on SK-OV-3 cells (ATCC HTB-77) (Homo sapiens (Human), UniProt P15328 25-234).
T1 construct: Endogenous FOLR1 of the cell line; also called cells that are known to express FOLR1
As to the kind of experiment: FACS on SK-OV-3 cells; MFI.

The target of assay [2] is T2, Recombinant extracellular domain of human FOLR1 (Novoprotein, Cat#: C784) (human, UniProt P15328 25-233, limits assumed).
T2 construct: Bought reagent; also called recombinant FOLR1; immobilized FOLR1 extracellular domain
As to the kind of experiment: ELISA on immobilized FOLR1 extracellular domain; O.D. 450 nm. In general terms: In an ELISA, binding on a coated surface is turned into a signal by an enzyme label.

Assay [3] deals with T2, Recombinant extracellular domain of …. Described as above. The source holds these as a separate data set.
Assay [4] concerns the target T1, FOLR1 on SK-OV-3 cells (ATCC HTB-77). As to the kind of experiment: FACS on SK-OV-3 cells; MFI. The source holds these as a separate data set.
For assay [5] the target is unchanged. As to the kind of experiment: FACS on SK-OV-3 cells; MFI. This is another data set of the same source.
Assay [6] shares this target. As to the kind of experiment: FACS on SK-OV-3 cells; MFI. This is another data set of the same source.
In assay [7] the target is T2, Recombinant extracellular domain of …. As to the kind of experiment: ELISA on immobilized FOLR1 extracellular domain; O.D. 450 nm. The source holds these as a separate data set.
The target of assay [8] is T1, FOLR1 on SK-OV-3 cells (ATCC HTB-77). As to the kind of experiment: FACS on SK-OV-3 cells; MFI. This is another data set of the same source.
Assay [9] addresses T2, Recombinant extracellular domain of …. As to the kind of experiment: ELISA on immobilized FOLR1 extracellular domain; O.D. 450 nm. This is another data set of the same source.
Assay [10] concerns the target T1, FOLR1 on SK-OV-3 cells (ATCC HTB-77). As to the kind of experiment: FACS on SK-OV-3 cells; MFI. The source holds these as a separate data set.
The target is the same in assay [11]. As to the kind of experiment: FACS on SK-OV-3 cells; MFI. This is another data set of the same source.
In assay [12] the target is T2, Recombinant extracellular domain of …. As to the kind of experiment: ELISA on immobilized FOLR1 extracellular domain; O.D. 450 nm. The source holds these as a separate data set.
For assay [13] the target is unchanged. As to the kind of experiment: ELISA on plate-coated recombinant human FOLR1 extracellular domain; anti-human IgG-HRP; O.D. 450 nm. How it is done: The Purified chimeric mAbs were tested in an ELISA assay for their ability to bind to immobilized human FOLR1. Recombinant extracellular domain of human FOLR1 (Novoprotein, Cat#: C784) in carbonate coating buffer was coated on a 96-well plate at room temperature for 1 hour. The plate is blocked by 5% BSA in TBST for 1 hour at room temperature. In each well of an individual plate, mAbs at various concentrations were incubated for 1 hour at room temperature. The plate was washed and the binding to FOLR1 was detected by anti-human IgG conjugated to horseradish peroxidase (hIgG-HRP) (ThermoFisher Scientific, Cat#: H10007) with incubation for 1 hour at room temperature. Then after washing, the ELISA was developed using One-step Detection Solution (ThermoFisher Scientific, Cat#: 34028) and measured as the absorbance at 450 nm.

Assay [14] shares this target. As to the kind of experiment: ELISA on immobilized FOLR1 extracellular domain; O.D. 450 nm. The source holds these as a separate data set.
The target is the same in assay [15]. As to the kind of experiment: SPR (Biacore 8k), mAb captured on protein A chip, recombinant FOLR1 as analyte, 1:1 model. On the procedure: The interaction of the chimeric anti-FOLR1 mAbs and FOLR1 was measured by Surface Plasmon Resonance (SPR) (Biacore 8k, GE Healthcare). Briefly, an anti-FOLR1 mAb was immobilized to a protein A sensor chip (GE Healthcare, Cat#: 29-1275-56) in HBS-P buffer (0.01 M HEPES pH 7.4, 0.15 M NaCl, 0.05% v/v Surfactant P20) with an injection flow rate at […]. The recombinant FOLR1 (Novoprotein, Cat#: C784) at variant concentrations was loaded with the flow rate of 30 μL/min in HBS-P buffer. Following antigen loading, the surface was regenerated with 10 mM glycine-HCl (pH 1.5). Sensor grams were fit with a 1:1 binding model using Biacore 8k evaluation software (GE Healthcare).

The target of assay [16] is T1, FOLR1 on SK-OV-3 cells (ATCC HTB-77). As to the kind of experiment: FACS on SK-OV-3 cells; Alexa Fluor 488 F(ab')2 goat anti-human IgG Fc; MFI. On the procedure: To assess the binding of the chimeric anti-FOLR1 mAbs to cells that are known to express FOLR1, SK-OV-3 (ATCC® HTB-77™) cells were plated at 80,000 cells per well on a 96-well non-binding U-bottom plate (Greiner Bio-One, Cat#: 650901). In some experiments, 90,000 cells per well were used. The cells were incubated in 50 μL FACS buffer (HBSS with 0.1% BSA and 0.05% sodium azide) containing mAbs at different concentrations on ice for 15 minutes. After wash, cells were incubated in 50 μL FACS buffer containing 3.5 μg/mL F(ab′)2-Goat anti-Human IgG Fc conjugated to Alexa Fluor® 488 (Invitrogen, Cat#: H10120) on ice for 15 minutes in dark and washed again. Cells were analyzed using an Attune NxT flow cytometer. MFI, mean fluorescence intensity.

T1 sequence (P15328 25-234 limits assumed): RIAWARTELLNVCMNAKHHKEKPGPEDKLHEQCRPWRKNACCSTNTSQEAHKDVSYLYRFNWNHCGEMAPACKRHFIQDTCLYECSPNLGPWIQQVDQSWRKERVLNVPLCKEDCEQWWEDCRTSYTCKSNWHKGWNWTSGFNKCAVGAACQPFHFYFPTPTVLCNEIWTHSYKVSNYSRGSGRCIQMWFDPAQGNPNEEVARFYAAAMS
T2 sequence (P15328 25-233 limits assumed): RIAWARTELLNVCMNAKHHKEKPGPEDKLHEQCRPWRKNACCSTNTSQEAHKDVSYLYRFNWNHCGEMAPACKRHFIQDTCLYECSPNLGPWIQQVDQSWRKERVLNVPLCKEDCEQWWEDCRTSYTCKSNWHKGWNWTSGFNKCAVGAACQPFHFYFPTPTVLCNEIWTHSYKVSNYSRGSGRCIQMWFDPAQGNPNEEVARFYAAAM

B1: F20-H1L2 (antibody, V domains shown)
VH: QVQLVQSGAEVKKPGSSVKVSCKASGYTFASYYLYWVRQAPGQGLEWIGEINPRSGGTNFNEKFKSRATVTVDKSTSTAYMELSSLRSEDTAVYYCSRSGRLRGFYTMDYWGQGTLVTVSS
VL: DIVMTQSPDSLAVSLGERATINCKAGENVGSYVSWYQQKPGQSPKLLIYGASNRYTGVPDRFSGSGSATDFTLTISSLQAEDVAVYYCGQTYRFLTFGQGTKVEIK
notes: also called humanized F20 mAb H1L2
In the case of B1, the binding result in assay [1] and in assay [2] was “binds” throughout.

B2: F20-H2L4 (antibody, V domains shown)
VH: QVQLVQSGAEVKKPGSSVKVSCKASGYTFASYYLYWVRQAPGQGLEWIGEINPRSGGTNFNEKFKSRATVTVDASTSTAYMELSSLRSEDTAVYYCSRSGRLRGFYTMDYWGQGTLVTVSS
VL: DIQMTQSPSTLSASVGDRVTITCKAGENVGSYVSWYQQKPGKAPKLLIYGASNRYTGVPARFSGSGSATEFTLTISSLQPEDFATYYCGQTYRFLTFGQGTKVEVK
notes: also called humanized F20 mAb H2L4
As to B2, the “EC50 (read off the curve)” value in [3] is about 0.2 nM; in assay [4] it was about 3 nM.

B3: F20-H3L3 (antibody, V domains shown)
VH: QVQLVQSGAEVKKPGSSVKVSCKASGYTFASYYLYWVRQAPGQGLEWIGEINPRSGGTNFNEKFKSKATVTVDKSTNTAYMELSSLRSEDTAVYYCSRSGRLRGFYTMDYWGQGTLVTVSS
VL: DIQMTQSPSTLSASVGDRVTITCKAGENVGSYVSWYQQKPGKAPKLLIYGASNRYTGVPARFSGSGSATEFTLTISSLQPDDFATYYCGQTYRFLTFGQGTKVEVK
notes: also called humanized F20 mAb H3L3
As for B3, the “EC50 (read off the curve)” value is 0.2 to 0.3 nM in assay [2] and about 1 nM in assay [5].

B4: F17-H1L2 (antibody, V domains shown)
VH: EVQLVETGGGLIQPGGSLRLSCAASGFTFSDFGMHWIRQAPGKGLEWVAYMSYTPGTFHYADTVKDRFTISRDNSKNTLYLQMNSLRAEDTAVYYCARVHVGTVDYWGQGTLVTVSS
VL: EVVLTQSPATLSLSPGERATLSCRASQNINNNLHWFQQKPGQAPRLLIKYASQSISGIPARFSGSGSGTDFTLTISSLETEDFAVYFCQQSNSWPALTFGQGTKVEIK
notes: also called humanized F17 mAb H1L2
In the case of B4, the “EC50 (read off the curve)” value in [6] was about 0.9 nM; in [7], about 0.2 nM.

B5: F10-H1L1 (antibody, V domains shown)
VH: EVQLVQSGAEVKKPGSSVKVSCKASGYAFSSSWMNWVRQAPGQGLEWIGRIYPGDGYTHYNGMFKGRASLTADKSTSTGYMELSSLRSEDTAVFFCTRHGDFPYWYFDVWGRGTLVTVSP
VL: DIQMTQSPSTLSASVGDRVTITCRASENIDSYLAWYQQKPGRAPKLLVYAATNLAVGVPSRFSGSGSGTEYTLTISSLQSDDFATYYCQHHYSTPPTFGQGTKLEIK
notes: also called humanized F10 mAb H1L1
Turning to B5, the “EC50 (read off the curve)” value in assay [8] is about 3 nM; in assay [9], 0.1 to 0.2 nM.

B6: F10-H2L1 (antibody, V domains shown)
VH: EVQLVQSGAEVKKPGSSVKVSCKASGYAFSSSWMNWVRQAPGQGLEWIGRIYPGDGYTHYNGMFKGRASLTADKSTSTGYMELSSLRSEDTAVFFCTRHGDFPYWYFDVWGRGTLVTVSS
VL: DIQMTQSPSTLSASVGDRVTITCRASENIDSYLAWYQQKPGRAPKLLVYAATNLAVGVPSRFSGSGSGTEYTLTISSLQSDDFATYYCQHHYSTPPTFGQGTKLEIK
notes: also called humanized F10 mAb H2L1
For the molecule B6, the “EC50 (read off the curve)” value in assay [10] is about 3 nM.

B7: F5-H1L2 (antibody, V domains shown)
VH: EVQLLESGGGLVQPGGSLRLSCAVSGFTFSNYGMSWVRQAPGKGLEWVATISSGGSYTYYPDSVKGRFTISRDNSKNTLYLQMNSLRAEDTAVYYCSTQGSSGYVGYWGQGTLVTVSS
VL: DIQMTQSPSSVSASVGDRVTITCKASQDITNFIGWYQHKPGKAPKLLISYTSILESGVPSRFSGSGSGTDYTLTISSLQPEDFATYYCLQYYNLWTFGGGTKVEIK
notes: also called humanized F5 mAb H1L2
As to B7, the results for the “EC50 (read off the curve)” value in assay [11] and in assay [12] were about 0.9 nM and 0.2 to 0.3 nM, respectively.

B8: F5-H2L2 (antibody, V domains shown)
VH: EVQLVESGGGLVQPGGSLRLSCAVSGFTFSNYGMSWVRQAPGKGLEWVATISSGGSYTYYPDSVKGRFTISRDNSKNTLYLQMNSLRAEDTAVYYCSTQGSSGYVGYWGQGTLVTVSS
VL: DIQMTQSPSSVSASVGDRVTITCKASQDITNFIGWYQHKPGKAPKLLISYTSILESGVPSRFSGSGSGTDYTLTISSLQPEDFATYYCLQYYNLWTFGGGTKVEIK
notes: also called humanized F5 mAb H2L2
Consider B8, for which the results for the “EC50 (read off the curve)” value in assay [11] and in assay [12] were about 0.9 nM and 0.2 to 0.3 nM, respectively.

B9: chimeric anti-FOLR1 mAb F17 (antibody, V domains shown)
VH: DVQLVESGGGLVQPGGSRKLSCAASGFTFSDFGMHWIRQAPERGLEWVAYMSYTPGTFHYADTVKDRFFISRDNAKNTLFLQMTSLRSDDTAMYYCARVHVGTVDYWGQGTSVTVSS
VL: DVVLTQSPATLSVTPGDSVSLSCRASQNINNNLHWFQQKSHESPRLLIKYASQSISGIPSRFSGSGSGTDFTLSINNVETEDFGIYFCQQSNSWPALTFGTGTKVELK
notes: also called Chimeric mAb F17
Take B9: the “EC50 (read off the curve)” value in assay [13] was 0.1 to 0.2 nM; in [14], 0.2 to 0.3 nM; in assay [16] it was about 0.8 nM; in [7], 0.2 to 0.3 nM. The Kd in assay [15] turned out to be 0.265 nM.

Usually EC50 (read off the curve) stands for the concentration that produces a half-maximal response. What is called Kd is the constant that tells how readily two partners part at equilibrium.

Source of the values: US20210002363A1 (PHANES THERAPEUTICS, published 2021).
